Laboratory results reported in US20200317768A1 (published 2020).

How the values were obtained:
[1] = target: T1, cynomolgus monkey FcγRIIb extracellular domain with C-terminal His-tag (cynomolgus monkey); experiment: SPR (Biacore); KD of SG1 divided by KD of the variant for this FcgR;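 further: relative to parent M103205H795-SG1 carrying the SG1 human heavy chain constant region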
T1 construct: Expressed in FreeStyle 293 cells and purified; also called cyno FcγRIIb; cynoFcγRIIb; not shown: C-terminal His-tag
T1 chain: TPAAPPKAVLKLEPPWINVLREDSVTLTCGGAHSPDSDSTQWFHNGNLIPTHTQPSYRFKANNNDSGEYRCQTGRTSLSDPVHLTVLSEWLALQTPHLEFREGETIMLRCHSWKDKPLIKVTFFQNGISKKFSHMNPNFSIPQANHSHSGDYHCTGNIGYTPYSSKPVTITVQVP
Procedure: (§1) The kinetic analysis of interactions between these antibodies and FcγR was carried out using BIACORE® T200 or BIACORE® 4000 (GE Healthcare). HBS-EP+ (GE Healthcare) was used as the running buffer, and the measurement temperature was set to 25° C. A chip produced by immobilizing Protein A. Protein A/G or mouse anti-human IgG kappa light chain (BD Biosciences) onto a Series S Sensor Chip CM4 or CM5 (GE Healthcare) by the amine-coupling method was used. […] After the measurement, the antibody captured on the chip was washed off by allowing reaction with 10 mM glycine-HCl, pH1.5 and 25 mM NaOH so that the chip was regenerated and used repeatedly. The sensorgrams obtained as measurement results were analyzed by the 1:1 Langmuir binding model using the BIACORE® Evaluation Software to calculate the binding rate constant ka (L/mol/s) and dissociation rate constant kd (l/s), and the dissociation constant KD (mol/L) was calculated from these values. […] Regarding such interactions, KD values were calculated using the following 1:1 binding model described in BIACORE® T100 Software Handbook BR1006-48 Edition AE.
(§2) The resultant variants were expressed using M103202L889-SK1 as light chain and their affinity to human and cynoFcγRs were evaluated (Table 20).

[2] = target: T2, cynomolgus monkey FcγRIIIaS extracellular domain with C-terminal His-tag (cynomolgus monkey, UniProt Q8SPW2 21-206 at identity 1.00)); experiment: as above
T2 construct: Expressed in FreeStyle 293 cells and purified; also called cyno FcγRIIIaS; cynoFcγRIIIaS; not shown: C-terminal His-tag
T2 chain: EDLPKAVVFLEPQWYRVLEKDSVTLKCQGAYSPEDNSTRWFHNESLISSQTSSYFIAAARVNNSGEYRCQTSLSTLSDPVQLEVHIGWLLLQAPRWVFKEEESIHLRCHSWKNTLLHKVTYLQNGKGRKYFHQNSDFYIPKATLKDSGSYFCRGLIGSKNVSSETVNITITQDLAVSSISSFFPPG
Procedure: as §1, §2

B1: MS_M103205H795-SG1/M103202L889-SK1 (antibody, human IgG1, kappa)
heavy: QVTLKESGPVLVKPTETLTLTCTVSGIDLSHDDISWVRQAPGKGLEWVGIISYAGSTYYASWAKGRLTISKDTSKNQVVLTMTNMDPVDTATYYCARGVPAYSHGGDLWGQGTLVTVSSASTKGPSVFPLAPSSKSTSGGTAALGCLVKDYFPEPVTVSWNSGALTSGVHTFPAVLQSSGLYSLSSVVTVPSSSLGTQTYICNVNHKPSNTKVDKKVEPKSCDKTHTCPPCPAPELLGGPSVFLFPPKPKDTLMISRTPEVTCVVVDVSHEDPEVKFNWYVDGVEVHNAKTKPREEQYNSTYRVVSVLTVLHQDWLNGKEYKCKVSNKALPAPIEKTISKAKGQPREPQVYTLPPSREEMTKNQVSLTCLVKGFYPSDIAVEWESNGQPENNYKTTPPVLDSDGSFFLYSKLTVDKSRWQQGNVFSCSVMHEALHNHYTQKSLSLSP
light: DIVMTQSPATLSLSPGERATLSCTSSQSVYHANWLSWFQQKPGQPPKLLIYWASTLAYGVPSRFSGSGSGTDFTLTISSLQPEDAATYYCAGGYGGGRYAFGQGTKVEIKRTVAAPSVFIFPPSDEQLKSGTASVVCLLNNFYPREAKVQWKVDNALQSGNSQESVTEQDSKDSTYSLSSTLTLSKADYEKHKVYACEVTHQGLSSPVTKSFNRGEC
notes: Anti-latent myostatin IgG; also called MS1032LO06-SG1
[1]
  KD fold (SG1 = 1): 1 fold
[2]
  KD fold (SG1 = 1): 1 fold

B2: M103205H795-MY171 / M103202L889-SK1 (antibody, human IgG1, kappa)
heavy: QVTLKESGPVLVKPTETLTLTCTVSGIDLSHDDISWVRQAPGKGLEWVGIISYAGSTYYASWAKGRLTISKDTSKNQVVLTMTNMDPVDTATYYCARGVPAYSHGGDLWGQGTLVTVSSASTKGPSVFPLAPSSKSTSGGTAALGCLVKDYFPEPVTVSWNSGALTSGVHTFPAVLQSSGLYSLSSVVTVPSSSLGTQTYICNVNHKPSNTKVDKKVEPKSCDKTHTCPPCPAPELLNGPSVFLFPPKPKDTLMISRTPEVTCVVVDVSEEDPEVKFNWYVDGVEVHNAKTKPREEQYNSTYRVVSVLTVLHQDWLNGKEYKCKVSNKALPAPIEKTISKAKGQPREPQVYTLPPSREEMTKNQVSLTCLVKGFYPSDIAVEWESNGQPENNYKTTPFVLDSDGSFFLYSKLTVDKSRWQQGNVFSCSVMHEALHNHYTQKSLSLSP
light: DIVMTQSPATLSLSPGERATLSCTSSQSVYHANWLSWFQQKPGQPPKLLIYWASTLAYGVPSRFSGSGSGTDFTLTISSLQPEDAATYYCAGGYGGGRYAFGQGTKVEIKRTVAAPSVFIFPPSDEQLKSGTASVVCLLNNFYPREAKVQWKVDNALQSGNSQESVTEQDSKDSTYSLSSTLTLSKADYEKHKVYACEVTHQGLSSPVTKSFNRGEC
notes: Position 396 variant derived from MY052, expressed with M103202L889-SK1 as light chain
[1]
  KD fold (SG1 = 1): 1.8 fold
[2]
  KD fold (SG1 = 1): 0.11 fold

B3: M103205H795-MY170 / M103202L889-SK1 (antibody, human IgG1, kappa)
heavy: QVTLKESGPVLVKPTETLTLTCTVSGIDLSHDDISWVRQAPGKGLEWVGIISYAGSTYYASWAKGRLTISKDTSKNQVVLTMTNMDPVDTATYYCARGVPAYSHGGDLWGQGTLVTVSSASTKGPSVFPLAPSSKSTSGGTAALGCLVKDYFPEPVTVSWNSGALTSGVHTFPAVLQSSGLYSLSSVVTVPSSSLGTQTYICNVNHKPSNTKVDKKVEPKSCDKTHTCPPCPAPELLNGPSVFLFPPKPKDTLMISRTPEVTCVVVDVSEEDPEVKFNWYVDGVEVHNAKTKPREEQYNSTYRVVSVLTVLHQDWLNGKEYKCKVSNKALPAPIEKTISKAKGQPREPQVYTLPPSREEMTKNQVSLTCLVKGFYPSDIAVEWESNGQPENNYKTTPEVLDSDGSFFLYSKLTVDKSRWQQGNVFSCSVMHEALHNHYTQKSLSLSP
light: DIVMTQSPATLSLSPGERATLSCTSSQSVYHANWLSWFQQKPGQPPKLLIYWASTLAYGVPSRFSGSGSGTDFTLTISSLQPEDAATYYCAGGYGGGRYAFGQGTKVEIKRTVAAPSVFIFPPSDEQLKSGTASVVCLLNNFYPREAKVQWKVDNALQSGNSQESVTEQDSKDSTYSLSSTLTLSKADYEKHKVYACEVTHQGLSSPVTKSFNRGEC
notes: as for B2
[1]
  KD fold (SG1 = 1): 1.5 fold
[2]
  KD fold (SG1 = 1): 0.12 fold

B4: M103205H795-MY168 / M103202L889-SK1 (antibody, human IgG1, kappa)
heavy: QVTLKESGPVLVKPTETLTLTCTVSGIDLSHDDISWVRQAPGKGLEWVGIISYAGSTYYASWAKGRLTISKDTSKNQVVLTMTNMDPVDTATYYCARGVPAYSHGGDLWGQGTLVTVSSASTKGPSVFPLAPSSKSTSGGTAALGCLVKDYFPEPVTVSWNSGALTSGVHTFPAVLQSSGLYSLSSVVTVPSSSLGTQTYICNVNHKPSNTKVDKKVEPKSCDKTHTCPPCPAPELLNGPSVFLFPPKPKDTLMISRTPEVTCVVVDVSEEDPEVKFNWYVDGVEVHNAKTKPREEQYNSTYRVVSVLTVLHQDWLNGKEYKCKVSNKALPAPIEKTISKAKGQPREPQVYTLPPSREEMTKNQVSLTCLVKGFYPSDIAVEWESNGQPENNYKTTPAVLDSDGSFFLYSKLTVDKSRWQQGNVFSCSVMHEALHNHYTQKSLSLSP
light: DIVMTQSPATLSLSPGERATLSCTSSQSVYHANWLSWFQQKPGQPPKLLIYWASTLAYGVPSRFSGSGSGTDFTLTISSLQPEDAATYYCAGGYGGGRYAFGQGTKVEIKRTVAAPSVFIFPPSDEQLKSGTASVVCLLNNFYPREAKVQWKVDNALQSGNSQESVTEQDSKDSTYSLSSTLTLSKADYEKHKVYACEVTHQGLSSPVTKSFNRGEC
notes: as for B2
[1]
  KD fold (SG1 = 1): 1.5 fold
[2]
  KD fold (SG1 = 1): 0.08 fold

B5: M103205H795-MY052 / M103202L889-SK1 (antibody, human IgG1, kappa)
heavy: QVTLKESGPVLVKPTETLTLTCTVSGIDLSHDDISWVRQAPGKGLEWVGIISYAGSTYYASWAKGRLTISKDTSKNQVVLTMTNMDPVDTATYYCARGVPAYSHGGDLWGQGTLVTVSSASTKGPSVFPLAPSSKSTSGGTAALGCLVKDYFPEPVTVSWNSGALTSGVHTFPAVLQSSGLYSLSSVVTVPSSSLGTQTYICNVNHKPSNTKVDKKVEPKSCDKTHTCPPCPAPELLNGPSVFLFPPKPKDTLMISRTPEVTCVVVDVSEEDPEVKFNWYVDGVEVHNAKTKPREEQYNSTYRVVSVLTVLHQDWLNGKEYKCKVSNKALPAPIEKTISKAKGQPREPQVYTLPPSREEMTKNQVSLTCLVKGFYPSDIAVEWESNGQPENNYKTTPMVLDSDGSFFLYSKLTVDKSRWQQGNVFSCSVMHEALHNHYTQKSLSLSP
light: DIVMTQSPATLSLSPGERATLSCTSSQSVYHANWLSWFQQKPGQPPKLLIYWASTLAYGVPSRFSGSGSGTDFTLTISSLQPEDAATYYCAGGYGGGRYAFGQGTKVEIKRTVAAPSVFIFPPSDEQLKSGTASVVCLLNNFYPREAKVQWKVDNALQSGNSQESVTEQDSKDSTYSLSSTLTLSKADYEKHKVYACEVTHQGLSSPVTKSFNRGEC
notes: Fc variant of M103205H795-SG1, expressed with M103202L889-SK1 as light chain; parent of the position 396 variants
[1]
  KD fold (SG1 = 1): 3.9 fold
[2]
  KD fold (SG1 = 1): 0.24 fold

B6: M103205H795-MY169 / M103202L889-SK1 (antibody, human IgG1, kappa)
heavy: QVTLKESGPVLVKPTETLTLTCTVSGIDLSHDDISWVRQAPGKGLEWVGIISYAGSTYYASWAKGRLTISKDTSKNQVVLTMTNMDPVDTATYYCARGVPAYSHGGDLWGQGTLVTVSSASTKGPSVFPLAPSSKSTSGGTAALGCLVKDYFPEPVTVSWNSGALTSGVHTFPAVLQSSGLYSLSSVVTVPSSSLGTQTYICNVNHKPSNTKVDKKVEPKSCDKTHTCPPCPAPELLNGPSVFLFPPKPKDTLMISRTPEVTCVVVDVSEEDPEVKFNWYVDGVEVHNAKTKPREEQYNSTYRVVSVLTVLHQDWLNGKEYKCKVSNKALPAPIEKTISKAKGQPREPQVYTLPPSREEMTKNQVSLTCLVKGFYPSDIAVEWESNGQPENNYKTTPDVLDSDGSFFLYSKLTVDKSRWQQGNVFSCSVMHEALHNHYTQKSLSLSP
light: DIVMTQSPATLSLSPGERATLSCTSSQSVYHANWLSWFQQKPGQPPKLLIYWASTLAYGVPSRFSGSGSGTDFTLTISSLQPEDAATYYCAGGYGGGRYAFGQGTKVEIKRTVAAPSVFIFPPSDEQLKSGTASVVCLLNNFYPREAKVQWKVDNALQSGNSQESVTEQDSKDSTYSLSSTLTLSKADYEKHKVYACEVTHQGLSSPVTKSFNRGEC
notes: as for B2
[1]
  KD fold (SG1 = 1): 1.8 fold
[2]
  KD fold (SG1 = 1): 0.1 fold
